# Assay results: the supplement of paper PMC10567573
# B1: ZNF207 (parent)
# chain: FPSAGQAQAAVQGPVGTDFKPLNS
# Variants of: B1
# Assay: protein stability index of a GFP-peptide fusion (GPS, HEK-293T) (PSI 1-6); higher = more stable
# Conditions: c terminus: a fixed tail appended
# 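Further: lentivirally expressed fusions sorted by FACS into six bins by GFP to DsRed ratio, PSI derived from sequencing read proportions per bin multiplied by bin number.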
row,Variant,protein stability index
1,FPSAGQAQAAVQGPEGTDFKPLNS [V15E],3.77
2,FPSAGQAQAAVQGPYGTDFKPLNS [V15Y],2.93
3,FPSAGQAQAAVQGPLGTDFKPLNS [V15L],3.44
4,FPSAGQAQAAVQGPDGTDFKPLNS [V15D],3.49
5,FPSAGQAQAAVQGPPGTDFKPLNS [V15P],3.63
6,FPSAGQAQAAVQGPIGTDFKPLNS [V15I],3.84
7,FPSAGQAQAAVQGPTGTDFKPLNS [V15T],3.7
8,FPSAGQAQAAVQGPCGTDFKPLNS [V15C],3.16
9,FPSAGQAQAAVQGPQGTDFKPLNS [V15Q],3.62
10,FPSAGQAQAAVQGPFGTDFKPLNS [V15F],2.73
11,FPSAGQAQAAVQGPWGTDFKPLNS [V15W],1.75
12,FPSAGQAQAAVQGPNGTDFKPLNS [V15N],3.88
13,FPSAGQAQAAVQGPSGTDFKPLNS [V15S],3.84
14,FPSAGQAQAAVQGPGGTDFKPLNS [V15G],3.1
15,FPSAGQAQAAVQGPHGTDFKPLNS [V15H],3.29
16,FPSAGQAQAAVQGPKGTDFKPLNS [V15K],3.58
17,FPSAGQAQAAVQGPMGTDFKPLNS [V15M],3.01
18,FPSAGQAQAAVQGPRGTDFKPLNS [V15R],3.28
19,FPSAGQAQAAVQGPVGTDFKALNS [P21A],3.59
20,FPSAGQAQAAVQGPVGTDFKVLNS [P21V],2.87
21,FPSAGQAQAAVQGPVGTDFKELNS [P21E],3.55
22,FPSAGQAQAAVQGPVGTDFKMLNS [P21M],3.36
23,FPSAGQAQAAVQGPVGTDFKRLNS [P21R],3.77
24,FPSAGQAQAAVQGPVGTDFKTLNS [P21T],3.17

row,Variant,protein stability index
1,FPSAGQAQAAVQGPVGTDFKLLNS [P21L],2.51
2,FPSAGQAQAAVQGPVGTDFKKLNS [P21K],3.69
3,FPSAGQAQAAVQGPVGTDFKILNS [P21I],2.87
4,FPSAGQAQAAVQGPVGTDFKYLNS [P21Y],3.31
5,FPSAGQAQAAVQGPVGTDFKDLNS [P21D],3.81
6,FPSAGQAQAAVQGPVGTDFKSLNS [P21S],3.62
7,FPSAGQAQAAVQGPVGTDFKWLNS [P21W],2.67
8,FPSAGQAQAAVQGPVGTDFKHLNS [P21H],3.28
9,FPSAGQAQAAVQGPVGTDFKQLNS [P21Q],3.88
10,FPSAGQAQAAVQGPVGTDFKCLNS [P21C],3.29
11,FPSAGQAQAAVQGPVGTDFKGLNS [P21G],3.13
12,FPSAGQAQAAVQGPVGTDFKNLNS [P21N],3.62
13,FPSAGQAQAAVQGPVGTDFKFLNS [P21F],2.81
14,FPSAGQAQAAVQGPVGTDFKPVNS [L22V],3.86
15,FPSAGQAQAAVQGPVGTDFKPENS [L22E],3.81
16,FPSAGQAQAAVQGPVGTDFKPTNS [L22T],3.64
17,FPSAGQAQAAVQGPVGTDFKPKNS [L22K],3.58
18,FPSAGQAQAAVQGPVGTDFKPGNS [L22G],3.25
19,FPSAGQAQAAVQGPVGTDFKPFNS [L22F],3.61
20,FPSAGQAQAAVQGPVGTDFKPNNS [L22N],4.33
21,FPSAGQAQAAVQGPVGTDFKPANS [L22A],3.67
22,FPSAGQAQAAVQGPVGTDFKPPNS [L22P],3.63
23,FPSAGQAQAAVQGPVGTDFKPSNS [L22S],3.95
24,FPSAGQAQAAVQGPVGTDFKPINS [L22I],3.71

row,Variant,protein stability index
1,FPSAGQAQAAVQGPVGTDFKPMNS [L22M],3.69
2,FPSAGQAQAAVQGPVGTDFKPYNS [L22Y],3.61
3,FPSAGQAQAAVQGPVGTDFKPDNS [L22D],4.46
4,FPSAGQAQAAVQGPVGTDFKPQNS [L22Q],2.92
5,FPSAGQAQAAVQGPVGTDFKPCNS [L22C],3.35
6,FPSAGQAQAAVQGPVGTDFKPHNS [L22H],4.15
7,FPSAGQAQAAVQGPVGTDFKPWNS [L22W],2.69
8,FPSAGQAQAAVQGPVGTDFKPRNS [L22R],3.89
9,FPSAGQAQAAVQGPVGTDAKPLNS [F19A],3.85
10,FPSAGQAQAAVQGPVGTDYKPLNS [F19Y],3.79
11,FPSAGQAQAAVQGPVGTDMKPLNS [F19M],3.76
12,FPSAGQAQAAVQGPVGTDWKPLNS [F19W],3.41
13,FPSAGQAQAAVQGPVGTDLKPLNS [F19L],3.91
14,FPSAGQAQAAVQGPVGTDKKPLNS [F19K],4.17
15,FPSAGQAQAAVQGPVGTDEKPLNS [F19E],4.06
16,FPSAGQAQAAVQGPVGTDSKPLNS [F19S],4.03
17,FPSAGQAQAAVQGPVGTDVKPLNS [F19V],3.35
18,FPSAGQAQAAVQGPVGTDQKPLNS [F19Q],3.97
19,FPSAGQAQAAVQGPVGTDHKPLNS [F19H],3.77
20,FPSAGQAQAAVQGPVGTDRKPLNS [F19R],4.11
21,FPSAGQAQAAVQGPVGTDIKPLNS [F19I],3.64
22,FPSAGQAQAAVQGPVGTDDKPLNS [F19D],4.4
23,FPSAGQAQAAVQGPVGTDCKPLNS [F19C],3.49
24,FPSAGQAQAAVQGPVGTDGKPLNS [F19G],4.15

row,Variant,protein stability index
1,FPSAGQAQAAVQGPVGTDTKPLNS [F19T],3.55
2,FPSAGQAQAAVQGPVGTDPKPLNS [F19P],3.29
3,FPSAGQAQAAVQGPVGTDNKPLNS [F19N],4.33
4,FPSAGQAQAAVQGPVGTLFKPLNS [D18L],2.32
5,FPSAGQAQAAVQGPVGTYFKPLNS [D18Y],2.36
6,FPSAGQAQAAVQGPVGTTFKPLNS [D18T],3.4
7,FPSAGQAQAAVQGPVGTFFKPLNS [D18F],2.34
8,FPSAGQAQAAVQGPVGTEFKPLNS [D18E],3.63
9,FPSAGQAQAAVQGPVGTHFKPLNS [D18H],2.74
10,FPSAGQAQAAVQGPVGTSFKPLNS [D18S],2.81
11,FPSAGQAQAAVQGPVGTVFKPLNS [D18V],2.61
12,FPSAGQAQAAVQGPVGTCFKPLNS [D18C],2.65
13,FPSAGQAQAAVQGPVGTKFKPLNS [D18K],2.99
14,FPSAGQAQAAVQGPVGTMFKPLNS [D18M],2.85
15,FPSAGQAQAAVQGPVGTGFKPLNS [D18G],2.8
16,FPSAGQAQAAVQGPVGTRFKPLNS [D18R],2.96
17,FPSAGQAQAAVQGPVGTAFKPLNS [D18A],3.31
18,FPSAGQAQAAVQGPVGTPFKPLNS [D18P],3.11
19,FPSAGQAQAAVQGPVGTQFKPLNS [D18Q],3.02
20,FPSAGQAQAAVQGPVGTIFKPLNS [D18I],2.67
21,FPSAGQAQAAVQGPVGTWFKPLNS [D18W],2.51
22,FPSAGQAQAAVQGPVGTNFKPLNS [D18N],3.79
